Data on 1 molecule can be found in publication PMC5971062 (Biochemistry, 2018).

For this assay, the target named is T1, Enhanced intracellular survival (Eis) protein from Mycobacterium tuberculosis, wild type (Mycobacterium tuberculosis, UniProt P9WFK7).
T1 sequence: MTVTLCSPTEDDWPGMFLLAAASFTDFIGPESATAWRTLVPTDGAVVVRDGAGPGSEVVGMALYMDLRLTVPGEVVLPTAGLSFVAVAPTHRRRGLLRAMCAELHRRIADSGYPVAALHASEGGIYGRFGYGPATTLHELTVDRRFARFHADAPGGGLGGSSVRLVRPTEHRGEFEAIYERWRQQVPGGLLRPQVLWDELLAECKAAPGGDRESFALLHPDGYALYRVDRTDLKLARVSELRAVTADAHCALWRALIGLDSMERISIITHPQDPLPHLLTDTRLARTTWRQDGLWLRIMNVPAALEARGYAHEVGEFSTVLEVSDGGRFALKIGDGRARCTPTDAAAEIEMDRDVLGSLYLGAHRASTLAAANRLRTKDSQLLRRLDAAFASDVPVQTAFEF
The experiment in a line: crystal structure.

B1: HupB_Mtb 9-mer peptide ATKAPAKKA (peptide)
peptide: ATKAPAKKA
On to B1, for which the binding result is recorded as “binds”.
